Earlier results in article PMC3433420.
Read-outs that look alike come from different tables or passages of the source.

Tests used:
Settings in all cases: cited from earlier work
SYK-C (Homo sapiens) = SYK-C (Homo sapiens) (UniProt P43405)
TNS4 (Homo sapiens) = TNS4 (Homo sapiens) (UniProt Q8IZW8)
PIK3R1-NC (Homo sapiens) = PIK3R1-NC (Homo sapiens) (UniProt P27986)
PIK3R2-NC (Homo sapiens) = PIK3R2-NC (Homo sapiens) (UniProt O00459)
PTPN11-N (Homo sapiens) = PTPN11-N (Homo sapiens) (UniProt Q06124)
RASA1-NC (Homo sapiens) = RASA1-NC (Homo sapiens) (UniProt P20936)
PLCG1-C (Homo sapiens) = PLCG1-C (Homo sapiens) (UniProt P19174)
GRB7 (Homo sapiens) [1] = biological target: GRB7 (Homo sapiens) (UniProt Q14451)
PLCG1-NC (Homo sapiens) = PLCG1-NC (Homo sapiens) (UniProt P19174)
VAV2 (Homo sapiens) = VAV2 (Homo sapiens) (UniProt P52735)
SYK-N (Homo sapiens) = SYK-N (Homo sapiens) (UniProt P43405)
GRB7 (Homo sapiens) [2] = biological target: GRB7 (Homo sapiens) (UniProt Q14451); remark: listed apart in the source
SLA (Homo sapiens) = SLA (Homo sapiens) (UniProt Q13239)
SH2B2 (Homo sapiens) = SH2B2 (Homo sapiens) (UniProt O14492)
SHC4 (Homo sapiens) = SHC4 (Homo sapiens) (UniProt Q6S5L8)
PLCG2-NC (Homo sapiens) [3] = biological target: PLCG2-NC (Homo sapiens) (UniProt P16885)
PLCG2-NC (Homo sapiens) [4] = biological target: PLCG2-NC (Homo sapiens) (UniProt P16885); remark: listed apart in the source
SHF (Homo sapiens) = SHF (Homo sapiens) (UniProt Q7M4L6)
NCK1 (Homo sapiens) = NCK1 (Homo sapiens) (UniProt P16333)
SH2D1A (Homo sapiens) = SH2D1A (Homo sapiens) (UniProt O60880)
GRB10 (Homo sapiens) = GRB10 (Homo sapiens) (UniProt Q13322)
TNS3 (Homo sapiens) = TNS3 (Homo sapiens) (UniProt Q68CZ2)
SHC1 (Homo sapiens) = SHC1 (Homo sapiens) (UniProt P29353)
DAPP1 (Homo sapiens) = DAPP1 (Homo sapiens) (UniProt Q9UN19)
TNS1 (Homo sapiens) = TNS1 (Homo sapiens) (UniProt Q9HBL0)
BTK (Homo sapiens) = BTK (Homo sapiens) (UniProt Q06187)
FER (Homo sapiens) = FER (Homo sapiens) (UniProt P16591)
SH2B3 (Homo sapiens) = SH2B3 (Homo sapiens) (UniProt Q9UQQ2)
PIK3R3-NC (Homo sapiens) = PIK3R3-NC (Homo sapiens) (UniProt Q92569)
SH3BP2 (Homo sapiens) = SH3BP2 (Homo sapiens) (UniProt P78314)
Sequence of SH3BP2 (Homo sapiens) (P78314 452-560): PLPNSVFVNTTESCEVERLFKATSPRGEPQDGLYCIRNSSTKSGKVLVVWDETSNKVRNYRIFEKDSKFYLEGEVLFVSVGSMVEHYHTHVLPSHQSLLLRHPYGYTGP

Sequence of GRB7 (Homo sapiens) (Q14451 426-532): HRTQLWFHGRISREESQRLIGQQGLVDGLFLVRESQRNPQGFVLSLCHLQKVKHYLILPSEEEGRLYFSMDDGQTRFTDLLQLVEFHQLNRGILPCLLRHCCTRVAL
Sequence of PLCG2-NC (Homo sapiens) (P16885 527-740): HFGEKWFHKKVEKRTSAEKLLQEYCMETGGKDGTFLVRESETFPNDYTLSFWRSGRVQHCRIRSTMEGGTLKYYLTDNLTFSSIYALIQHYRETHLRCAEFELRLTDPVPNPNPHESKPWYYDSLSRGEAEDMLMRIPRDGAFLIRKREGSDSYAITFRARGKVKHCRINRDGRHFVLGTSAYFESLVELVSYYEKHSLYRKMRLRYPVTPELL
Sequence of GRB10 (Homo sapiens) (Q13322 488-579): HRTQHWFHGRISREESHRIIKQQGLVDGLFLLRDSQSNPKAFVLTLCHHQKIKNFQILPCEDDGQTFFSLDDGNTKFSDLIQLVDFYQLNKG
Sequence of PLCG1-C (Homo sapiens) (P19174 545-761): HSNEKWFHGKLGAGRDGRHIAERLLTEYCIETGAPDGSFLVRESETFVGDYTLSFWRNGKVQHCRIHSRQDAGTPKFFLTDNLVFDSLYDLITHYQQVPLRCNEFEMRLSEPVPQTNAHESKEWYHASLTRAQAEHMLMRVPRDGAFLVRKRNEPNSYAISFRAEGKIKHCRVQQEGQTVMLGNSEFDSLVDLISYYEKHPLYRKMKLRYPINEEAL
Sequence of PLCG1-NC (Homo sapiens) (P19174 545-761): as above
Sequence of PIK3R2-NC (Homo sapiens) (O00459 325-721): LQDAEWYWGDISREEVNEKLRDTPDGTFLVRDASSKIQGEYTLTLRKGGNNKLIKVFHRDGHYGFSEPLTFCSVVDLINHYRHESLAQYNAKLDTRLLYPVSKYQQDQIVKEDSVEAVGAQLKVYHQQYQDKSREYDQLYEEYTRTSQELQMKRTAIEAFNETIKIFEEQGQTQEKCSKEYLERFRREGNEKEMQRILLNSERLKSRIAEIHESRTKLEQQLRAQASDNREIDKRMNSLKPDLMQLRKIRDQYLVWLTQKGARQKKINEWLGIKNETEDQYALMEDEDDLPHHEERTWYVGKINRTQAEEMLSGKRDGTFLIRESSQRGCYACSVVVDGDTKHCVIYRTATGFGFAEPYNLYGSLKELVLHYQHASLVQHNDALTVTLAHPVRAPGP
Sequence of BTK (Homo sapiens) (Q06187 276-382): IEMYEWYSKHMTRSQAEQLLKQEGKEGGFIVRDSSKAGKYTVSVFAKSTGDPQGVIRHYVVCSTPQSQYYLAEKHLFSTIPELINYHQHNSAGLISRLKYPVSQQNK
Sequence of DAPP1 (Homo sapiens) (Q9UN19 30-134): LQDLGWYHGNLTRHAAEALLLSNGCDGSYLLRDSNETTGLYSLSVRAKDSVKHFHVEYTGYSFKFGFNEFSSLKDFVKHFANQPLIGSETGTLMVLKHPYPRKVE
Sequence of SH2B3 (Homo sapiens) (Q9UQQ2 359-467): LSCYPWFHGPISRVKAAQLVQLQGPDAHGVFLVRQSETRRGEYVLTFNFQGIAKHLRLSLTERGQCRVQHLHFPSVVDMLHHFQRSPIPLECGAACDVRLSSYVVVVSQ
Sequence of SHF (Homo sapiens) (Q7M4L6 318-423): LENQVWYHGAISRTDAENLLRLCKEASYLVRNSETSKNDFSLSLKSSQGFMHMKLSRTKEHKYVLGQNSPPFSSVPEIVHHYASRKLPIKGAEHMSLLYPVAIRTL
Sequence of PIK3R1-NC (Homo sapiens) (P27986 328-723): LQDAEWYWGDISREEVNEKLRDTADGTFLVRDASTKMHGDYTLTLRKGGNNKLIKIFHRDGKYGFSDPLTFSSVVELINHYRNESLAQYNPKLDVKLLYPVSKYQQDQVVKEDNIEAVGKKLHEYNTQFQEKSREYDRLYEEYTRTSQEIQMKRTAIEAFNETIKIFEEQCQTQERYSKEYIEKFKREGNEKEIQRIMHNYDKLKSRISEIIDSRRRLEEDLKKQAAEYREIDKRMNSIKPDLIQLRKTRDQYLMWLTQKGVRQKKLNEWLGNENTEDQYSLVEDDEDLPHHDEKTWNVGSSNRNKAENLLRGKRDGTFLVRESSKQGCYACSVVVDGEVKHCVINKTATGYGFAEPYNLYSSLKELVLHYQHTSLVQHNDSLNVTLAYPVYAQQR
Sequence of FER (Homo sapiens) (P16591 455-555): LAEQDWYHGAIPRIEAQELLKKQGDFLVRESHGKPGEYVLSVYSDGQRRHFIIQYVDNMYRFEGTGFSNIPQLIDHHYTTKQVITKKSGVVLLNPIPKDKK
Sequence of SHC1 (Homo sapiens) (P29353 483-583): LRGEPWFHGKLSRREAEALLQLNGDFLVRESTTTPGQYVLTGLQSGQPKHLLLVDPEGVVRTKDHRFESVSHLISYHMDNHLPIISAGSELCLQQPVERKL
Sequence of RASA1-NC (Homo sapiens) (P20936 176-446): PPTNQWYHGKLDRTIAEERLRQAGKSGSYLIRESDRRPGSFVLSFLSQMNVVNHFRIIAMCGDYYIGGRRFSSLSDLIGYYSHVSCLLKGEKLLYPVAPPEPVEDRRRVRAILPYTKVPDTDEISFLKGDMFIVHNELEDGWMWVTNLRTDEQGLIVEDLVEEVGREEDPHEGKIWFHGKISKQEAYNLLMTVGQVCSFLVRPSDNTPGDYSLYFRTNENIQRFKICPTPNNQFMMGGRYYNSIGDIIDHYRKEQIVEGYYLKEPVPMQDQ
Sequence of TNS4 (Homo sapiens) (Q8IZW8 444-561): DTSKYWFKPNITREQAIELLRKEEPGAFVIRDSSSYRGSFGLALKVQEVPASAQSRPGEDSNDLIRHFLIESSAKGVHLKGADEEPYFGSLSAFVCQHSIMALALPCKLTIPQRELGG
Sequence of TNS1 (Homo sapiens) (Q9HBL0 1562-1681): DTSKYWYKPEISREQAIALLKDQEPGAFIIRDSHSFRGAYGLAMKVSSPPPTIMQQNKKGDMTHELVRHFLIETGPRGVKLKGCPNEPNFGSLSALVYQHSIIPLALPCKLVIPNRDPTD
Sequence of VAV2 (Homo sapiens) (P52735 668-772): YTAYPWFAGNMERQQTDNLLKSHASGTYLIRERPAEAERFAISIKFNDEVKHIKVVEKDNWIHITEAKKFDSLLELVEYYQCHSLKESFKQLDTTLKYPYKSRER
Sequence of TNS3 (Homo sapiens) (Q68CZ2 1167-1287): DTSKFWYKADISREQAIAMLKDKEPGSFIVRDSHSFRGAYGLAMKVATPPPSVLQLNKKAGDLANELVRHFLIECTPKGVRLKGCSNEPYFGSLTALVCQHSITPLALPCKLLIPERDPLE
Sequence of SH2B2 (Homo sapiens) (O14492 412-520): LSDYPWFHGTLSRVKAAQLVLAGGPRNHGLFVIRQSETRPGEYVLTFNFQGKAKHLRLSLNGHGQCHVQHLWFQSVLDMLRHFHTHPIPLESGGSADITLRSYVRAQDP
Sequence of SH2D1A (Homo sapiens) (O60880 1-109): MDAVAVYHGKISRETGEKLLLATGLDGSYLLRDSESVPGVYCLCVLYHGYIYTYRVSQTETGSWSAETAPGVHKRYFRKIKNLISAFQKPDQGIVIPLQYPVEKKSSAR
Sequence of SLA (Homo sapiens) (Q13239 79-180): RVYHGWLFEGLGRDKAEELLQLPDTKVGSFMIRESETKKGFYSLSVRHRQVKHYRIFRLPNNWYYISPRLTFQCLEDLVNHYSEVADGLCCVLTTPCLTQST
Sequence of SHC4 (Homo sapiens) (Q6S5L8 521-622): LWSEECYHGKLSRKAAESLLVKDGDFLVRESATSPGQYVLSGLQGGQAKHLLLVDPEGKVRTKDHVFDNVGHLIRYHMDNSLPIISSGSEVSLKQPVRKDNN

…pYLIPQQGFd
apparent Kd (screen) (SYK-C (Homo sapiens)): 934 nM | apparent Kd (screen) (TNS4 (Homo sapiens)): 922 nM | apparent Kd (screen) (PIK3R1-NC (Homo sapiens)): 295 nM | apparent Kd (screen) (PIK3R2-NC (Homo sapiens)): 352 nM | apparent Kd (screen) (PTPN11-N (Homo sapiens)): 379 nM | apparent Kd (screen) (RASA1-NC (Homo sapiens)): 1420 nM | apparent Kd (screen) (PLCG1-C (Homo sapiens)): 2000 nM

…pYLVPQQGF
apparent Kd (screen) (GRB7 (Homo sapiens) [1]): 2000 nM | apparent Kd (screen) (PLCG1-NC (Homo sapiens)): 2000 nM | apparent Kd (screen) (VAV2 (Homo sapiens)): 2000 nM

…pYWDQDPPE
apparent Kd (screen) (SYK-N (Homo sapiens)): 203 nM | apparent Kd (screen) (GRB7 (Homo sapiens) [2]): 2000 nM | apparent Kd (screen) (SLA (Homo sapiens)): 2000 nM | apparent Kd (screen) (SH2B2 (Homo sapiens)): 1470 nM | apparent Kd (screen) (SHC4 (Homo sapiens)): 2000 nM | apparent Kd (screen) (PLCG2-NC (Homo sapiens) [3]): 263 nM | apparent Kd (screen) (PLCG2-NC (Homo sapiens) [4]): 2000 nM | apparent Kd (screen) (SHF (Homo sapiens)): 2000 nM | apparent Kd (screen) (NCK1 (Homo sapiens)): 2000 nM | apparent Kd (screen) (SH2D1A (Homo sapiens)): 2000 nM | apparent Kd (screen) (GRB10 (Homo sapiens)): 486 nM | apparent Kd (screen) (TNS3 (Homo sapiens)): 1290 nM | apparent Kd (screen) (SHC1 (Homo sapiens)): 2000 nM | apparent Kd (screen) (DAPP1 (Homo sapiens)): 2000 nM | apparent Kd (screen) (TNS1 (Homo sapiens)): 2000 nM | apparent Kd (screen) (BTK (Homo sapiens)): 2000 nM

…pYEEMRAFQ
apparent Kd (screen) (FER (Homo sapiens)): 499 nM | apparent Kd (screen) (SH2B3 (Homo sapiens)): 1520 nM | apparent Kd (screen) (PIK3R3-NC (Homo sapiens)): 10 nM | apparent Kd (screen) (SH3BP2 (Homo sapiens)): 2000 nM
